Laboratory results published in publication PMC4310633 (Biochemistry, 2014).

B1: ligand binding domain (LBD) of the GluN1 subunit of the NMDA receptor (domain or fragment)
chain: not shown
B2: ligand binding domain (LBD) of the GluN2A subunit of the NMDA receptor (domain or fragment)
chain: not shown

Target: the molecule itself
Experiment: AUC

| Protein | stoichiometry N |
| --- | --- |
| B1 | 2 |
| B2 | 2 |
